Data: patent publication US7087392B2, “Antiproliferative SgK reagents and methods” (The Regents of the University of California, priority 1999, dated 2006)

What was measured:
Sgk = assay: In vitro peptide kinase assay (Sgktide, [32P]ATP) of immunoprecipitated HA-Sgk; type: biochemical; details: mutant forms of Sgk
Excerpt: Sgk is a component of the PI3 kinase cascade and is directly activated by PDK1 mediated phosphorylation of threonine 256 in the activation loop. […] To develop this kinase assay, lysates from human embryo kidney 293 cells transfected to express wild type hemagglutinin (HA)-tagged Sgk (HA-Sgk) were isolated and the Sgk immunoprecipitated with HA antibodies was used to screen a synthetic peptide library for identifying potential Sgk substrates. The immunoprecipitates were extensively washed, and incubated with the peptide in the presence of [^32P]ATP in kinase buffer (Park et al 1999). Sgk phosphorylated several peptides, and the best substrate for Sgk was KKRNRRLSVA (SEQ ID NO:01), which is named Sgktide. […] This substrate specificity is generally similar to, but not identical, with the substrate specificity for Akt, which is a well characterized down stream component of the PI 3 kinase pathway.
Cotransfection of PDK1 with Sgk caused a 6-fold activation of Sgk activity, whereas, the kinase-dead form of PDK1 had no effect. […] The Ser-78 in the amino terminal domain is a third phosphorylation site and expression of the S78G Sgk mutation ablates the presence of the slowest migrating form of phosphorylated Sgk in SDS polyacrylamide gels.

[1] = target: T1, epithelial sodium channel (ENaC) (Xenopus laevis, UniProt P51167+P51169+P51171); assay: Epithelial sodium channel activity after co-expression in oocytes; type: cell-based
T1 construct: expressed in transfected cells; host or cells: Xenopus laevis oocytes (co-expression with Sgk)
T1 sequence (P51167 1-632): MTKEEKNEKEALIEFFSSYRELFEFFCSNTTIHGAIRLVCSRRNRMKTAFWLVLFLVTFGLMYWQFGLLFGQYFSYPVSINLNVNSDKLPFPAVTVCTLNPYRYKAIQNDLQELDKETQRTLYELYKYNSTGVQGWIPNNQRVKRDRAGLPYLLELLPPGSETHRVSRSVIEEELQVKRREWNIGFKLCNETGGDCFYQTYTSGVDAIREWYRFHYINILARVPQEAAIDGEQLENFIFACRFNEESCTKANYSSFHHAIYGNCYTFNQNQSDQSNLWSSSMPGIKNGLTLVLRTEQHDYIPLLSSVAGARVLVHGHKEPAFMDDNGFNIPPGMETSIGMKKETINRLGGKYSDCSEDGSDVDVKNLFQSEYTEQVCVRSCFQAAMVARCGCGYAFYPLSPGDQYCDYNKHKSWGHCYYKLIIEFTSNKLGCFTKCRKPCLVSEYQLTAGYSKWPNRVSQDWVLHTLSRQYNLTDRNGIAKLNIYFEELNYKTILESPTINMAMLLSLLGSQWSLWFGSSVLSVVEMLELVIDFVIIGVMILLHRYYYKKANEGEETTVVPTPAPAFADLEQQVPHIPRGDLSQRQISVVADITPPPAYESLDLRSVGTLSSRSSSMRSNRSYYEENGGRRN
T1 sequence (P51169 1-647): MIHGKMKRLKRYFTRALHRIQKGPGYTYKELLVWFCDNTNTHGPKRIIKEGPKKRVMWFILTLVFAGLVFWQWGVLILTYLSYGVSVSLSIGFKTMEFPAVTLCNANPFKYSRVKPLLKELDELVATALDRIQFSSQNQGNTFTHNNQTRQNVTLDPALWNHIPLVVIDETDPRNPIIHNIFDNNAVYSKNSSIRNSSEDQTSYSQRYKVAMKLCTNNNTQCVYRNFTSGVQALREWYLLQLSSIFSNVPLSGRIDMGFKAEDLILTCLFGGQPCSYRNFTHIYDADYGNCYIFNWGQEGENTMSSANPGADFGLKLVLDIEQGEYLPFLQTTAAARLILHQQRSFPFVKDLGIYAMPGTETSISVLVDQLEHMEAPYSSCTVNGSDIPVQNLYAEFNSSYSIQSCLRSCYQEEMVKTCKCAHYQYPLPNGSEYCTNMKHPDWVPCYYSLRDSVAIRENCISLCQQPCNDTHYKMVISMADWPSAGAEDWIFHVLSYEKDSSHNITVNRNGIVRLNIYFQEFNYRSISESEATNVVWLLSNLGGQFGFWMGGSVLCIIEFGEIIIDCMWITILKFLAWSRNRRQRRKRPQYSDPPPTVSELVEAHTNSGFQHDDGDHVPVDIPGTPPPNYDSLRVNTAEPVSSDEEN
T1 sequence (P51171 1-660): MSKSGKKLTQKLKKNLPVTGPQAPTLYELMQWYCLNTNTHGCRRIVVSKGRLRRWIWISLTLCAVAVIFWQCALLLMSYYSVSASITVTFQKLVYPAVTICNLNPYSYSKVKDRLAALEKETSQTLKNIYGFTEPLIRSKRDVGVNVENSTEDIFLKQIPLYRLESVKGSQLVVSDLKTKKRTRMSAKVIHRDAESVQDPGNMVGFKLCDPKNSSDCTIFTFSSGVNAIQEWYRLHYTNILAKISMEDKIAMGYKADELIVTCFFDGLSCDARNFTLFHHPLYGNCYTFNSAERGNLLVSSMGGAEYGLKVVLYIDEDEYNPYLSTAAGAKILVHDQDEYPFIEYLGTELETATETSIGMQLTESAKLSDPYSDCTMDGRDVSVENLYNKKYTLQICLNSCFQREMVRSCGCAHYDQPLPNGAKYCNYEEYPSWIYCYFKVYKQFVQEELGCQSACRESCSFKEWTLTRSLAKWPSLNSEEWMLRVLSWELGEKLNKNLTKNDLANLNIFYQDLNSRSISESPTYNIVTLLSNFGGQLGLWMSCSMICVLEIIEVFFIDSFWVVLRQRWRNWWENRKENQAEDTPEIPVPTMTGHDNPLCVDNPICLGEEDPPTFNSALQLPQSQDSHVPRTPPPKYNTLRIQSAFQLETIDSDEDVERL
Excerpt: Identification of Sgk-interacting proteins that may connect Sgk to the cellular stress response. Using the yeast two-hybrid genetic screening strategy discussed earlier, we also identified IF-1, which is a negative regulator of the mitochondrial F1 ATPase pump, as an Sgk-interacting protein. […] Furthermore, cell lysates containing endogenous Sgk induced in response to glucocorticoids, serum, hyperosmotic stress or UV radiation interacted specifically with the GST-IF1 fusion protein but not with GST alone, as assessed by anti-sgk immunoblotting. […] We disclose that in response to genotoxic or hormonal stress cues, high levels of Sgk protein are produced, which then binds to the IF1 ATPase inhibitor, thus activating the mitochondrial F1 ATPase. We have also shown that Sgk activates the epithelial sodium channel (ENaC) after their co-expression in Xenopus Laevis oocytes. […] These observations indicate that one function of Sgk is to regulate cell volume following osmotic stress of the cells. […] Intriguingly, the cytoplasmic domains of the ENaC beta subunit contain amino acid sequences surrounding a serine that indicate it is an endogenous substrate for Sgk. Previous studies have shown that both the beta and gamma subunits of EnaC are phosphorylated (Shimkets, R. A.,et al. 1998. Proc Natl Acad Sci USA 95:3301–5).

B1: K127M: Sgk with lysine 127 in the ATP binding domain substituted with methionine; kinase dead (protein, UniProt O00141 1-431, looked up, variant K127M)
Serine/threonine-protein …: MTVKTEAAKGTLTYSRMRGMVAILIAFMKQRRMGLNDFIQKIANNSYACKHPEVQSILKISQPQEPELMNANPSPPPSPSQQINLGPSSNPHAKPSDFHFLKVIGKGSFGKVLLARHKAEEVFYAVMVLQKKAILKKKEEKHIMSERNVLLKNVKHPFLVGLHFSFQTADKLYFVLDYINGGELFYHLQRERCFLEPRARFYAAEIASALGYLHSLNIVYRDLKPENILLDSQGHIVLTDFGLCKENIEHNSTTSTFCGTPEYLAPEVLHKQPYDRTVDWWCLGAVLYEMLYGLPPFYSRNTAEMYDNILNKPLQLKPNITNSARHLLEGLLQKDRTKRLGAKDDFMEIKSHVFFSLINWDDLINKKITPPFNPNVSGPNDLRHFDPEFTEEPVPNSIGKSPDSVLVTASVKEAAEAFLGFSYAPPTDSFL
For B1, the “kinase activity / activation of Sgk mutant” value (Sgk) was “kinase dead form of Sgk” and the “basal ENaC activity” value [1] was “inhibiting the basal EnaC activity”.
